Here are results for two molecules from patent US20240317847A1 (Bayer, published 2024).

Test [1] addresses T1, human IL-11 (Invigate, e.g., lot #C121021-19) (human, UniProt P20809 22-199).
T1 construct: Bought protein; also called hIL-11; hIL11
T1 sequence: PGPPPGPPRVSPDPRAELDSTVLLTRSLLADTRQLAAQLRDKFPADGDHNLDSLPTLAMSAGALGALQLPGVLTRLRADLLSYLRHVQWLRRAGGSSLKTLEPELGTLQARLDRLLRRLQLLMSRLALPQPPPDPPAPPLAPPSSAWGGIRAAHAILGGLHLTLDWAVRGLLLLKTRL
Briefly: Tri-complex ELISA: antibody titrated against 8 nM human IL-11, 2 nM human gp130-human-Fc and 2 nM murine IL11RA-murine-Fc. The method, then: (§1) In the Tri-complex ELISA format IL-11 antibodies are tested for their ability to inhibit the formation of a complex consisting of murine or human gp130-Fc fusion protein, with murine or human IL-11, and a murine IL11RA-Fc fusion protein. The assay format was adapted according to FIG. 18 (a, b), depending on whether murine or human IL-11 IgG antibodies were tested.
(§2) The assay was performed using High Binding microtiter plates (Greiner, #781077). In a first step, 25 μl of goat anti human IgG (Sigma, #12136), diluted 1:1000 in coating buffer (Candor, #121125) was coated on the plate at 4° C. overnight. Next day, the plate was washed one time with 50 μl PBST and then blocked with 50 μl SmartBlock (Candor, #113125) for one hour at room temperature (RT). […] After three additional washes of the coated and blocked microtiter plate with PBS-T, 25 μl of each mixture were added and the assay plate was incubated for one hour at room temperature. After three additional washes, anti-mouse-gp130 biotinylated antibody (R&D, #BAF468) or anti-human gp130 biotinylated antibody (R&D, #BAF228), both 1:1000 in 10% SmartBlock PBS-T, was added and incubated for 1 hour at RT. After three additional washes, a Streptavidin-Peroxidase conjugate (Sigma, #S5512) 1:1000 in SmartBlock PBS-T was added and incubated for one hour at room temperature. After a final three washes, AmplexRed (Fisher Scientific, A12222), 1/1000 in PBS, 0,003% H₂O₂, was added as substrate and incubated for 15 min at RT in the dark. Then, the fluorescence was measured with a plate reader at 535/595 nm. Signals from dose responses were used to calculate IC50 values using GraphPad Prism software.

Test [2] has as its target T1, human IL-11 (Invigate, e.g., lot …). The test is described as follows: Di-complex ELISA: biotinylated human IL-11 on streptavidin plate, antibody titrated against 2 nM canine IL11RA-human-Fc (competitor). The method, then: (§3) In the Di-complex ELISA format anti IL-11 antibodies are tested for the ability to interfere with the formation of complexes consisting of immobilized murine IL-11 (Invigate, e.g., lot #C210819-09) or human IL-11 (Invigate, e.g., lot #C121021-19), and murine IL11RA-Fc fusion proteins or canine IL11RA-human-Fc fusion protein (FIG. 17a, b).
(§4) The assay is performed using streptavidin coated microtiter plates (Greiner bio-one, #781997). In a first step, 10 nM biotinylated mouse IL-11 (Invigate, Germany, e.g., lot #C210819-09) or human IL-11 (Invigate, Germany, e.g., lot #C121021-19) is coated in 25 μl PBS on the plate at 4° C. overnight. Next day, the plate is washed three times with 50 μl PBST and then blocked with 50 μl SmartBlock (Candor, #113125) for one hour at room temperature (RT). After additional three washes with PBST, 25 μl of a mixture of the murine anti IL-11 antibody and recombinant canine IL11RA-Fc fusion protein (Sino Biological, #70078-D02H) in PBS-T, 10% Smartblock are added simultaneously to the plate and incubated for one hour at RT. […] After three additional washes with PBS-T, 25 μl anti-human-POD (Sigma, #A0170) in PBS-T, 10% Smartblock is added and incubated for 1 hour at RT. After a final three washes with PBS-T, 25 μl AmplexRed (Fisher Scientific, A12222), 1/1000 in PBS, 0,003% H₂O₂, is added as substrate and incubated for 15 min at RT in the dark. Then, the fluorescence is measured with a plate reader at 535/595 nm. Signals from dose responses were used to calculate IC50 values (GraphPad Prism). Efficacy was calculated as [(signal measured at lowest antibody concentration−signal measured at the highest antibody concentration)×100] divided by (signal measured at lowest antibody concentration−signal measured in the absence of IL11Ra).

The target is the same in test [3]. The test is described as follows: SPR, Biacore T200, 25 C; antibody captured via anti-mouse Fc, IL-11 as analyte, 1:1 Langmuir fit. The procedure:
(§5) Antibodies were captured via anti-mouse Fc IgGs (“Mouse antibody capture kit, Order No. BR100383, Cytiva) covalently amine coupled to a Series S CM5 sensor chip (Cytiva). The amine coupling was carried out according to the manufacturer's instructions using 1-ethyl-3-(3-dimethylaminopropyl) carbodiimide hydrochloride (EDC), N-hydroxysuccinimide (NHS) and ethanolamine HCl, pH 8.5 (“Amine Coupling Kit” BR-1000-50, Cytiva.). Human IL-11 (Invigate, e.g., lot #C121021-19), and murine IL-11 (Invigate, e.g., lot #C210819-09) were used as analytes. […] Based on that experiment an IL-11 concentration range was chosen to optimally determine kinetics and affinity of anti-IL-11 antibodies in multicycle kinetics mode. The sensor surface was regenerated with glycine pH 1.7 after each antigen injection. Obtained sensorgrams were double referenced (subtraction of reference flow cell signal and buffer injection) and were fitted to a 1:1 Langmuir binding model to derive kinetic data using the Biacore T200 Evaluation software or the Biacore Insight software.

Test [4] concerns the target T2, murine IL-11 (Invigate, e.g., lot #C210819-09) (mouse, UniProt P47873 22-199).
T2 construct: Bought protein; biotinylated where captured on streptavidin plates; also called mIL-11; mIL11
T2 sequence: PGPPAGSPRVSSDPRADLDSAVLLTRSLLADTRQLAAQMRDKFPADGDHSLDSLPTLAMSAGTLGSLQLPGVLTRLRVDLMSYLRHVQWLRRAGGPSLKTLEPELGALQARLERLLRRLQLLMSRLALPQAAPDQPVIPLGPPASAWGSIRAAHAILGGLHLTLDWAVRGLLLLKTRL
The test is described as above. The procedure:
as §5

For test [5], the target named is T1, human IL-11 (Invigate, e.g., lot …). Briefly: cell-based or functional assay.
Test [6] addresses T2, murine IL-11 (Invigate, e.g., lot …). The test is described as follows: cell-based or functional assay.
Test [7] has the same target. The test is described as follows: Di-complex ELISA: biotinylated murine IL-11 on streptavidin plate, antibody titrated against 2 nM canine IL11RA-human-Fc (competitor). The method, then: as §3, §4
The target is the same in test [8]. The test is described as follows: Tri-complex ELISA: antibody titrated against 8 nM murine IL-11, 2 nM murine gp130-human-Fc and 2 nM murine IL11RA-murine-Fc. The method, then:
as §1, §2

B1: TPP-18068 (antibody, mouse IgG1)
heavy: EVQLLESGGGLVQPGGSLRLSCAASGFTFSSYGMHWVRQAPGKGLEWVSVISYDGSYKYYADSVKGRFTISRDNSKNTLYLQMNSLRAEDTAVYYCAAGVPDYWGQGTLVTVSSAKTTPPSVYPLAPGSAAQTNSMVTLGCLVKGYFPEPVTVTWNSGSLSSGVHTFPAVLQSDLYTLSSSVTVPSSTWPSETVTCNVAHPASSTKVDKKIVPRDCGCKPCICTVPEVSSVFIFPPKPKDVLTITLTPKVTCVVVDISKDDPEVQFSWFVDDVEVHTAQTQPREEQFNSTFRSVSELPIMHQDWLNGKEFKCRVNSAAFPAPIEKTISKTKGRPKAPQVYTIPPPKEQMAKDKVSLTCMITDFFPEDITVEWQWNGQPAENYKNTQPIMDTDGSYFVYSKLNVQKSNWEAGNTFTCSVLHEGLHNHHTEKSLSHSPGK
light: QSVLTQPPSASGTPGQRVTISCTGSSSNIGAGYDVHWYQQLPGTAPKLLIYSNNERPSGVPDRFSGSKSGTSASLAISGLRSEDEADYYCAAWDDSLNGPVFGGGTKLTVLGQPKSSPSVTLFPPSSEELETNKATLVCTITDFYPGVVTVDWKVDGTPVTQGMETTQPSKQSNNKYMASSYLTLTARAWERHSSYSCQVTHEGHTVEKSLSRADCS
notes: mIgG1, Lambda
As for B1, the “Efficacy (%)” value in test [1] turned out to be 7.3%; in test [2], 19.6%; in test [7] it was 72.7%; in test [8], 37.1%. Moreover, the results for the Kd in test [3] and in test [4] were 48 nM and 0.72 nM, respectively. For the same molecule, the “Efficacy (%), Stat3 reporter gene assay, human IL11RA, 0.78 nM hIL-11” value in test [5] is 20.7%. In addition, the “IC50 [M], Stat3 reporter gene assay, HEK 293F transfected with human IL11RA, 0.78 nM hIL-11” value in test [5] amounted to 4.83e-09 M. Further, in test [6], the “Efficacy (%), Stat3 reporter gene assay, mouse Il11ra, 3.13 nM mIL-11” value turned out to be 84.1%. Besides, in test [6], the “IC50 [M], Stat3 reporter gene assay, HEK 293F transfected with mouse Il11ra, 3.13 nM mIL-11” value came out at 2.67e-09 M. For the same molecule, the values for the IC50 in test [7] and in test [8] were 2.5 nM and 66 nM, respectively.

B2: TPP-18063 (antibody, mouse IgG1, V domains shown)
VH: EVQLLESGGGLVQPGGSLRLSCAASGFTFSDYYMSWIRQAPGKGLEWVSGINWNGGSTGYADSVKGRFTISRDNSKNTLYLQMNSLRAEDTAVYYCATWDGPFDYWGQGTLVTVSS
VL: QSVLTQPPSASGTPGQRVTISCTGSSSNIGAGYDVHWYQQLPGTAPKLLIYYDDLLPSGVPDRFSGSKSGTSASLAISGLRSEDEADYYCQSYDSSLGGSVFGGGTKLTVLG
notes: mIgG1, Lambda
Consider B2, for which the “Efficacy (%)” value in test [1] was 60.6%; in test [2], 42%; in test [7], 68.9%; in test [8], 36.3%. For the same molecule, the IC50 in test [1] worked out at 92 nM; in test [2], 54 nM; in test [7], 12 nM; in test [8], 170 nM. The figures for the dissociation constant (Kd) in test [3] and in test [4] were 53 nM and 10 nM, respectively. Further, the “Efficacy (%), Stat3 reporter gene assay, human IL11RA, 0.78 nM hIL-11” value in test [5] is 54.3%. The “IC50 [M], Stat3 reporter gene assay, HEK 293F transfected with human IL11RA, 0.78 nM hIL-11” value in test [5] was 1.1e-07 M. Moreover, the “Efficacy (%), Stat3 reporter gene assay, mouse Il11ra, 3.13 nM mIL-11” value in test [6] was found to be 60%. In addition, in test [6], the “IC50 [M], Stat3 reporter gene assay, HEK 293F transfected with mouse Il11ra, 3.13 nM mIL-11” value was found to be 9.5e-08 M.
